This series in a line: yeast display, Sf9 membrane polyspecificity reagent, FACS + sequencing; frameworks hold sequencing errors. In short, it runs like this: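 A synthetic nanobody library was expressed on Saccharomyces cerevisiae BJ5465 by galactose induction for 36–48 hours. The library was stained for 1 hour at 4 °C with 10% biotinylated, detergent-solubilized Sf9 membrane reagent and enriched with streptavidin microbeads before FACS. Low and high (top ~1%) gates were set on anti-HA fluorescence for expression and streptavidin fluorescence for reagent binding, and each polyreactivity label reflects the gate of origin.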
For “QVQLVESGGGLVQAGGSLRLSCAASGRIIYTYAMAWYRQAPGKERELVAAISWSGGSTYYADSVKGRFTISRDNAKNTVYLQMNSMKPEDTAVYYCNAAYYGYENLSKRGYWGQGTQVTVSS”, the “polyreactivity (PSR sort gate)” value is listed as “high polyreactivity”. Consider “QVQLVESGGGLVQAGGSLRLSCAASGRIIYVNAMGWYRQAPGKERELVAAISSRGGTTYYADSVKGRFTISRDNAKNTVYLQMNSLKPEDTAVYYCNAGRVRHGNDYWGQGTQVTVSS”, for which the “polyreactivity (PSR sort gate)” value was “high polyreactivity”. With “QVQLVESGGGLVQAGGSLRLSCAASGRIKGKNAMGWYRQAPGKERELVAAISSTGSTYYADSVKGRFSISRDNAKNTVYLQMNSLKPEDTAVYYCAATVEWWPGGWFDYWGQGTQVTVSS”, the “polyreactivity (PSR sort gate)” value is given as “high polyreactivity”.

For the sequence “QVQLVESGGGLVQAGGSLRLSCAASGRILAANAMGWYRQAPGKERELVAAISWSGGRTYYADSVKGRFTISRDNAKNTVYLQMNSLKPEDTAVYYCIKLALAGYDYWGQGTQVTVSS”, the “polyreactivity (PSR sort gate)” value is reported as “high polyreactivity”. The entry for “QVQLVESGGGLVQAGGSLRLSCAASGRILASYAMGWYRQAPGKERELVAAIRYRGSTSYADSVKGRFTISRDNAKNTVYLQMNSLKPEDTAVYYCNAGLEYYYWGYTWEFDYWGQGTQVTVSS” is “low polyreactivity”; for “QVQLVESGGGLVQAGGSLRLSCAASGRILASYAMGWYRQAPGKEWELVAAIRYRGSTSYADSVKGRFTISRDNAKNTVYLQMNSLKPEDTGVYYCAAKWHVRGRGARYRYDYDFWGQGTQVTVSS” it is “low polyreactivity”. As for “QVQLVESGGGLVQAGGSLRLSCAASGRILATYTKGWYRPAPGKERELVATITSGGRTTYADSVKGRFTISRDNAKNTVYLQMNSLKPEDTAVYYCNVAYWYYRKYRPLWGRDYYWGQGTQVTVSS”, the “polyreactivity (PSR sort gate)” value is “high polyreactivity”. Regarding “QVQLVESGGGLVQAGGSLRLSCAASGRILCGNTMGWYRQAPGKERELVAAISWNGGGTYYADSVKGRFTISRDNAKNTVYLQMNSLKPEDTAVYYCAAYKEPYYEEYGYWGQGTQVTVSS”, the “polyreactivity (PSR sort gate)” value is recorded as “low polyreactivity”. Take “QVQLVESGGGLVQAGGSLRLSCAASGRILDGYAMGWYRQATGKERELVAAISRTGGGTYYADSVKGRFTISRDNSKNTVFLQMISLKPEDTAVYYCAKRRYYITLQADFDYWGQGTQVTVSS”: the “polyreactivity (PSR sort gate)” value is recorded as “low polyreactivity”.

With “QVQLVESGGGLVQAGGSLRLSCAASGRILDIYAMGWYRQAPGKDRELVAAINSDGRTYYADSVKGRFTISRDNAKNTVYLQMNSLKPEDTAVYYCNARHHNKVARFDYWGQGTQVTVSS”, the “polyreactivity (PSR sort gate)” value was “low polyreactivity”. Under “QVQLVESGGGLVQAGGSLRLSCAASGRILFGNMGWYRQAHGKERELVAAISRGTGSTDYADSVKGRFTISRDNAKNTVYLQMNSLKPEDTAVYYCYARSYRVHLHYWRKWEYDYWGQGTQVTVSS” stands “high polyreactivity”.

For “QVQLVESGGGLVQAGGSLRLSCAASGRILGDNVMGWYRQAPGKERELVAAISSGSGSTYYADSVKGRFTISRDKAKNTVYLQMNSLKPEDTAVYYCAAGPYIYPGYDYWGQGTQVTVSS”, the “polyreactivity (PSR sort gate)” value was “low polyreactivity”. As for “QVQLVESGGGLVQAGGSLRLSCAASGRILGDYAMGWYRQAPGKEREFVAAIDYNGGSTNYADSVKGRFTISRDNAKNTVYLQMNSLKPEDTAVYYCAAPGFPSRNGFGYWGQGTQVTVSS”, the “polyreactivity (PSR sort gate)” value was “low polyreactivity”. Turning to “QVQLVESGGGLVQAGGSLRLSCAASGRILGLYAMGWYRQAPGKESELVAAISRGGGSTYYADSLKGRFTISRDNAKNTVYLQMNSLKPEDTAVYYCATGLGYFSRLDYWGQGTQVTVSS”, the “polyreactivity (PSR sort gate)” value is on record as “low polyreactivity”. “QVQLVESGGGLVQAGGSLRLSCAASGRILGVYVMGWYRQAPGKERELVAAISGGGRTNYADSVKGRFTISRDNAKNTVYLQMNSLKPEDTAVYYCNAERPYQYYPGIYRWYYYWGQGTQVTVSS”: the “polyreactivity (PSR sort gate)” value is “low polyreactivity”. On to “QVQLVESGGGLVQAGGSLRLSCAASGRILGWNAMGWYRQAPGKERELVAAISTSGTDTYYADSVKGRFTISSDNAKNTVYLQMNCLIPEDTAVYYCAADTVTIYWGLSVSYGCWGQGTQVTVSS”, for which the “polyreactivity (PSR sort gate)” value is reported as “low polyreactivity”.

In the case of “QVQLVESGGGLVQAGGSLRLSCAASGRILGYYAMGGSRQAPGKERELVAAISSGDSTNYADSVKGRFTISRDNAKNTVYLQMNSLKPEDTAVYYCAAKGWIWNPYNYWGQGTQGTVSS”, the “polyreactivity (PSR sort gate)” value is recorded as “low polyreactivity”. For the sequence “QVQLVESGGGLVQAGGSLRLSCAASGRILGYYAMGWYRQAPGKERDLVAAISRAGSTNYADSVKGRFTISRDNAKNTVYLQMNSLKAEDTAVYYCAARPYRRGYNYWGQGTQVTVSS”, the “polyreactivity (PSR sort gate)” value is “high polyreactivity”. As to “QVQLVESGGGLVQAGGSLRLSCAASGRILGYYAMGWYRQAPGKERELVAAITYSGGSTYYADSVKGRFTISRDNAKNTVYLQMNSLKPEDTAVYYCAADKWLLGLYGSTWNDYWGQGTQVTVSS”, the “polyreactivity (PSR sort gate)” value is reported as “low polyreactivity”. For “QVQLVESGGGLVQAGGSLRLSCAASGRILHRYVMGWYIQAPGKERELVAAISSGGSTTYADSVKGRFTISRDNAKNTVYLQIYSLKPEDTAVYYCAKYSFWSTSRMDYWGQGTQVTVSS”, the “polyreactivity (PSR sort gate)” value is listed as “low polyreactivity”. Consider “QVQLVESGGGLVQAGGSLRLSCAASGRILHRYVMGWYRQAPGKERELVAAISSGGSTTYADSVKGRFTISRDNAKYTVYLQMNSLKPEDTAVYYCAADARYSRRYYYWGQGTQVTVSS”, for which the “polyreactivity (PSR sort gate)” value was “low polyreactivity”. The entry for “QVQLVESGGGLVQAGGSLRLSCAASGRILIRYAMGWYRQAPGKERELVASISTRGASTSYADSVKGRFTISRDNAKNTVYLQMNSLKPEDTAVYYCNARGSYPPYRSYGYWGQGTQVTVSS” is “low polyreactivity”; for “QVQLVESGGGLVQAGGSLRLSCAASGRILKRYAMGWYRQAPGKERELVAAINWNGGSTYYADSVKGRFTISRDNAKNTVYLQMNSLKPEDTAVYYCAAYYGTPRGFDYWGQGTQVTVSS” it is “high polyreactivity”; for “QVQLVESGGGLVQAGGSLRLSCAASGRILKYYAMAWYREAPGKERELVAAIWSGGSTYYADSVKGRFTISRDNAKNTVYLLMNSLKPEDTAVYYCNAEYQWGGYGYDYWGQGTQVTVSS” it is “low polyreactivity”. Regarding “QVQLVESGGGLVQAGGSLRLSCAASGRILLRNVMGWYRQAPGKERELVAVITRTGITYYADSVMGRFTITRDNAKNTVYLQMTSLKPEDTAVYYCAAGLPKYEHDYWGQGTQVTVSS”, the “polyreactivity (PSR sort gate)” value is reported as “low polyreactivity”.

In the case of “QVQLVESGGGLVQAGGSLRLSCAASGRILLTYAMGWYRQAPGKERELVAAISSDSRTYYADSVKGRFTISRDNAKNTVYLQMNSLIPEDTAVYYCVRRRYKYDYWGQGTQVTVSS”, the “polyreactivity (PSR sort gate)” value is recorded as “low polyreactivity”.

For the sequence “QVQLVESGGGLVQAGGSLRLSCAASGRILPFNAMGWHRQAPGKERELVDAIRWRGSSTYYADSVKGRFTISRDNAKNTVYLQMNSLKPEDTAVYYCAAPSSVRGKVISADYGYWGQGTQVTVSS”, the “polyreactivity (PSR sort gate)” value was “high polyreactivity”. For the sequence “QVQLVESGGGLVQAGGSLRLSCAASGRILPRNAMGWYRQAPGKERELVAGISSDGSPNYADSVKGRFTISRDKAKNTVYLQMNSLNPEDTAVYYCYADYLFYAFDYWGQGTQVTVSS”, the “polyreactivity (PSR sort gate)” value was “low polyreactivity”.

Turning to “QVQLVESGGGLVQAGGSLRLSCAASGRILRGNAMGGYRQAPGKERELVADINYSDGSTYYADSVKGRFTISRDNAKNTVYLQMNSLKPEDTAVYYCAKKNPLVFTSGMDYWGQGTQVTVSS”, the “polyreactivity (PSR sort gate)” value is “low polyreactivity”. On to “QVQLVESGGGLVQAGGSLRLSCAASGRILRINPMGWYRQAPGKERELVAAISGSGGTTYYADSVKGRFTISRDNAKNTVYLQMNSLKPEDTAVYYCNKAIWYAEYDYWGQGTQVTVSS”, for which the “polyreactivity (PSR sort gate)” value is reported as “low polyreactivity”. As to “QVQLVESGGGLVQAGGSLRLSCAASGRILRTYAMGWYIQAPGKERELVAAISRSGGSTYYADSVKGRFTLSRDNAKNTVAVQMTSLKPEDTAVYYCHKAYGGRGSKDEYWGQGTQVTVSS”, the “polyreactivity (PSR sort gate)” value is reported as “high polyreactivity”.

As for “QVQLVESGGGLVQAGGSLRLSCAASGRILRYYAMGWYRQAPGKERELVAVITSSDGSTYYADSVKGRFTISRDNAKNTVYLQMNSLKPEDTAVYYCAADYHWYRRPGYNYWGQGTQVTVSS”, the “polyreactivity (PSR sort gate)” value is “low polyreactivity”. Take “QVQLVESGGGLVQAGGSLRLSCAASGRILSPYAMGWYRQAPGKERELVAAITSGGRTHYADSVKGRFTISRDNAKNTVYLQMNSLKRVDTAVYYCAARVRSGWWVRDDYWGQGTQVTVSS”: the “polyreactivity (PSR sort gate)” value is on record as “high polyreactivity”. Turning to “QVQLVESGGGLVQAGGSLRLSCAASGRILSSYAMGWNRQAPGKERELVAVISSGGNTYYADSVKGRFTISRDNAKNTVFLQMNSLKPEDTAVYYCNAARRGYLRRYYWGQGTQVNVSS”, the “polyreactivity (PSR sort gate)” value is reported as “high polyreactivity”. As for “QVQLVESGGGLVQAGGSLRLSCAASGRILTFNTMGWYRQAPGKERELVAAIRSGGSTYYADSVKGRFTISRDNAKNTVFLQMNSLKPEDTAVYYCRGMGYWGQGTQVTVSS”, the “polyreactivity (PSR sort gate)” value is reported as “high polyreactivity”. With “QVQLVESGGGLVQAGGSLRLSCAASGRILTSNAMGWYRQAPGKERELVAAISWSGGSTYYADSVKGSFTISRDNAKNTVYLQMNSLKPDDSAVYYCAAPFTTTFDYSGQGTQVTVSS”, the “polyreactivity (PSR sort gate)” value is recorded as “low polyreactivity”.

For “QVQLVESGGGLVQAGGSLRLSCAASGRILTYYVMGWYRQAPGKERELVAAITDSGGITYADSVKGRFTISRDNAKNTVYLQMNSLKPEDTAVYYCAAVRFFLYYFDFSAYDYWGQGTQVTVSS”, the “polyreactivity (PSR sort gate)” value was “low polyreactivity”.

Turning to “QVQLVESGGGLVQAGGSLRLSCAASGRILVGYAMGRYRQAPGKERELVAAINRSGSSTYYADSVKGRFTISRDNAKNTVYLQRNSLNPEDTAVYYCNAPSGNRYGPRYDYWGQGTQVTVSS”, the “polyreactivity (PSR sort gate)” value is “high polyreactivity”. The entry for “QVQLVESGGGLVQAGGSLRLSCAASGRILVPYAMGWYRQAPGKERELVAAINPRGGRTYYADSVKGRFTISRDNAKYTVYLQMNSLKPEDTAVYYCNALAHQYHRYEFGYWGQGTQVTVSS” is “low polyreactivity”; for “QVQLVESGGGLVQAGGSLRLSCAASGRILVWYAMAWYRQAPGKERELVASISSTGGSTYYADSVKGRFTISRDNAKNTVYLQMNSLKPEDTAVYYCAAVIRSQDGRGYDYWGQGTQVTVSS” it is “high polyreactivity”; for “QVQLVESGGGLVQAGGSLRLSCAASGRILWFYAMGWYRQAPGKERELVAAISWNGGSTYYADSVKGRFTISRDNAKNTVYLQMNSLKPEDTAVYYCAARPFHIHLSLEYNYWGQGTQVTVSS” it is “low polyreactivity”.

The values above are taken from the nanobody polyreactivity screen of Harvey et al. (2022).
